Measured values published in US20240182536A1.
Several values for one entry are separate records, joined by “and”; a condition that tells them apart may be missing. Equal values may be shown once. Read-outs that look alike come from different tables or passages of the source.

Key:
Test in all cases: cell-based or functional assay
[1] = target: human IL-18 binding protein (human) (UniProt O95998)
[2] = target: IL-18 receptors on HEK-Blue IL-18 reporter cells (UniProt Q13478)
[3] = target: human IL-18 binding protein (human) (UniProt O95998); remark: listed apart in the source
[4] = target: IL-18 receptors on HEK-Blue IL-18 reporter cells (UniProt Q13478); remark: listed apart in the source
[5] = target: interleukin 18 binding protein (IL-18BP) (UniProt O95998)
[6] = target: T1, IL-18 receptor (IL-18Rα and IL-18Rβ) (UniProt Q13478)
T1 sequence (looked up) 1: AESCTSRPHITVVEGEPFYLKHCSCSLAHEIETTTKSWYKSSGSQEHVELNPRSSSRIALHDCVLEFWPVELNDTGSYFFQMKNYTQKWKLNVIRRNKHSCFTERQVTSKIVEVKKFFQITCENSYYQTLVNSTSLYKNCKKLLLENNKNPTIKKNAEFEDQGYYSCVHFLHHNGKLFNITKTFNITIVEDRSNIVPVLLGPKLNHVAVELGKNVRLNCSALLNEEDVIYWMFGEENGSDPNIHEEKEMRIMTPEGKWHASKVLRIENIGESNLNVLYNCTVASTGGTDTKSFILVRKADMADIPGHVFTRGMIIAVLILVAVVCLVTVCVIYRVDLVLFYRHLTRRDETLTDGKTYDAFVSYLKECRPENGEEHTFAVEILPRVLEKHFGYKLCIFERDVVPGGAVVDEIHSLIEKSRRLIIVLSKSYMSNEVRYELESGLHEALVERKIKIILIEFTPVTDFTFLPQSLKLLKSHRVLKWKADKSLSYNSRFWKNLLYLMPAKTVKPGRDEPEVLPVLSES
T1 sequence (looked up) 2: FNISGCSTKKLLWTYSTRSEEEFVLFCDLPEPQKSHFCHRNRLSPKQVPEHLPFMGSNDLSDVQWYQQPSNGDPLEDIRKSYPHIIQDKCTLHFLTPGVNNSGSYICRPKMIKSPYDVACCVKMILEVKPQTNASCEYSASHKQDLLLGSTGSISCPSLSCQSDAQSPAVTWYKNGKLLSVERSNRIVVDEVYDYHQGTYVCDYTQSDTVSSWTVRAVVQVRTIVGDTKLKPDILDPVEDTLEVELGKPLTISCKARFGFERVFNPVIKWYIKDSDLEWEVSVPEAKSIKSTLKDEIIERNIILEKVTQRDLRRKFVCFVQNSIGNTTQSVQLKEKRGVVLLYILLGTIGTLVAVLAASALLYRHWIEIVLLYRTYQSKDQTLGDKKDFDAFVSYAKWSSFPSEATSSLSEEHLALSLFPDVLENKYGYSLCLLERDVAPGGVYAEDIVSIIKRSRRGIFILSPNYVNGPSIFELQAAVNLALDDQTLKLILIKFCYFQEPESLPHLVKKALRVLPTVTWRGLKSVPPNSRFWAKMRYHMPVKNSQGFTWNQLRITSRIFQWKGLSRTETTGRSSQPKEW

[7] = target: IL-18 binding protein (IL-18BP) (UniProt O95998)
Sequence of IL-18 binding protein (IL-18BP) (O95998 31-194 limits assumed): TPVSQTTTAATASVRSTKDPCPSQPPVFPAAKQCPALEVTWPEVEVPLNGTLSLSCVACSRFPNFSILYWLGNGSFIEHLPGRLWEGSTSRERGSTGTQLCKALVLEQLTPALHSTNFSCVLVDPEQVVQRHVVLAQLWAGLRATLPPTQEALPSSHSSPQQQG

Sequence of interleukin 18 binding protein (IL-18BP) (O95998 31-194 limits assumed): as above
Sequence of human IL-18 binding protein (human) (O95998 31-194 limits assumed): as above
Sequence of WT-monoFc (wild-type human IL-18 linked to monoFc) (Fc fusion) (chain): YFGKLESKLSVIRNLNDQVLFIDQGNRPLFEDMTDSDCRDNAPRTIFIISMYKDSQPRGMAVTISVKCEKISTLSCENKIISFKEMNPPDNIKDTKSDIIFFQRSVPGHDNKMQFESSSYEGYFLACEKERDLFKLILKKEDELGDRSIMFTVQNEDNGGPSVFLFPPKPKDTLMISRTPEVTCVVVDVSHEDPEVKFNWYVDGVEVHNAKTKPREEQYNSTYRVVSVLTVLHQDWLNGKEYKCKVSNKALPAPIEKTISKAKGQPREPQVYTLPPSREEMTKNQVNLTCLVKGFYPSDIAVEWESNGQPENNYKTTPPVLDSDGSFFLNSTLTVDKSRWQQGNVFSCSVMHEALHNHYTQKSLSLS
Sequence of WT-monoFc (Fc fusion) (chain): as above
Sequence of WT-hIL-18-monoFc (Fc fusion) (chain): as above

WT-hIL-18-monoFc (Fc fusion)
HEK-blue EC50 (pM) + 1000 nM BP [1]: 99.8 pM
HEK-blue EC50 (pM) - BP [2]: 0.495 pM
HEK-Blue activity, +100 nM BP, DF-10000 [3]: 0.92
HEK-Blue activity, +100 nM BP, DF-100,000 [3]: 0.29
HEK-Blue activity, +100 nM BP, DF-1,000,000 [3]: 0.24
HEK-blue EC50 (pM) + 300 nM BP [3]: 221 pM
HEK-blue EC50 (pM) + 300 nM IL-18BP [3]: > 500 pM
Ratio (-BP/+BP), DF-10000 [3]: 2.45
Ratio (-BP/+BP), DF-100,000 [3]: 7.16
Ratio (-BP/+BP), DF-1,000,000 [3]: 7.32
HEK-Blue activity, No BP, DF-10000 [4]: 2.24
HEK-Blue activity, No BP, DF-100,000 [4]: 2.08
HEK-Blue activity, No BP, DF-1,000,000 [4]: 1.75
HEK-blue EC50 (pM) - BP [4]: 0.458 pM
HEK-blue EC50 (pM) - IL-18BP [4]: 0.29 pM

hIL18(G3P, E6K, D54Y, S55P, T63S, N91S, R104Q, Q154R)-monoFc (Fc fusion)
EC50 (pM), PBMC IFN gamma assay, + 300 nM BP [5]: 64.1 pM
EC50 (pM), PBMC IFN gamma assay [6]: 85.6 pM

WT-monoFc (Fc fusion)
HEK-blue EC50 (pM) + 300 nM BP [5]: > 500 pM
Ratio [5]: 947
HEK-blue EC50 (pM) - BP [4]: 0.52 pM

IL-18 variant S36E, D40A, N41M, K53T, S55Y, P107S (ligand)
HEK-Blue activity, +100 nM BP, DF-10000 [5]: 0.25
HEK-Blue activity, +100 nM BP, DF-100,000 [5]: 0.11
HEK-Blue activity, +100 nM BP, DF-1,000,000 [5]: 0.09
Ratio (-BP/+BP), DF-10000 [5]: 0.97
Ratio (-BP/+BP), DF-100,000 [5]: 1.02
Ratio (-BP/+BP), DF-1,000,000 [5]: 1.01
HEK-Blue activity, No BP, DF-10000 [4]: 0.24
HEK-Blue activity, No BP, DF-100,000 [4]: 0.11
HEK-Blue activity, No BP, DF-1,000,000 [4]: 0.09

wt-monoFc (from UniProt Q14116 37-193; P01857 119-327) (Fc fusion)
Activity, +100 nM BP, DF-1000002 [7]: 0.11
Activity, +100 nM BP, DF-5000003 [7]: 0.08
Activity, +100 nM BP, DF-25000004 [7]: 0.07
Ratio (-BP/+BP), DF-1000005 [7]: 17.4
Ratio (-BP/+BP), DF-5000006 [7]: 17.4
Ratio (-BP/+BP), DF-25000007 [7]: 10.5
Activity, No BP, DF-100000 [4]: 1.94
Activity, No BP, DF-500000 [4]: 1.43
Activity, No BP, DF-2500000 [4]: 0.77

hDR-18-monoFc (Fc fusion)
HEK-Blue activity, +100 nM BP, DF-10000 [3]: 2.21
HEK-Blue activity, +100 nM BP, DF-100,000 [3]: 2.19
HEK-Blue activity, +100 nM BP, DF-1,000,000 [3]: 2.1
Ratio (-BP/+BP), DF-10000 [3]: 0.99
Ratio (-BP/+BP), DF-100,000 [3]: 1.03
Ratio (-BP/+BP), DF-1,000,000 [3]: 1.03
Activity, +100 nM BP, DF-1000002 [7]: 2.01
Activity, +100 nM BP, DF-5000003 [7]: 1.95
Activity, +100 nM BP, DF-25000004 [7]: 1.59
Ratio (-BP/+BP), DF-1000005 [7]: 0.99
Ratio (-BP/+BP), DF-5000006 [7]: 0.98
Ratio (-BP/+BP), DF-25000007 [7]: 0.93
Activity, No BP, DF-100000 [4]: 2
Activity, No BP, DF-500000 [4]: 1.91
Activity, No BP, DF-2500000 [4]: 1.49
HEK-Blue activity, No BP, DF-10000 [4]: 2.19
HEK-Blue activity, No BP, DF-100,000 [4]: 2.26
HEK-Blue activity, No BP, DF-1,000,000 [4]: 2.16

hIL18(G3P, E6K, D54Y, S55P, T63S, N91S, R104Q)-monoFc (Fc fusion)
EC50 (pM), PBMC IFN gamma assay, + 300 nM BP [5]: 74.5 pM
EC50 (pM), PBMC IFN gamma assay [6]: 19.5 pM

G3T/M60K-HSA-his-avi
HEK-blue EC50 (pM) + 300 nM IL-18BP [3]: 4.25 pM
HEK-blue EC50 (pM) - IL-18BP [4]: 0.36 pM

WT-monoFc (wild-type human IL-18 linked to monoFc) (Fc fusion)
EC50 (pM), PBMC IFN gamma assay, + 300 nM BP [5]: 611 pM
Ratio (HEK-blue EC50, + 100 nM BP against - BP) [5]: 520 and 360 and 338
EC50 (pM) - BP, HEK-blue re-screening [6]: 0.51 pM and 0.43 pM and 0.6 pM
EC50 (pM), PBMC IFN gamma assay [6]: 96.8 pM

G3V/M60K-monoFc (Fc fusion)
HEK-blue EC50 (pM) + 300 nM IL-18BP [3]: 1.57 pM
HEK-blue EC50 (pM) - IL-18BP [4]: 0.15 pM

G3V/M60K-HSA-his-avi
HEK-blue EC50 (pM) + 300 nM IL-18BP [3]: 3.83 pM
HEK-blue EC50 (pM) - IL-18BP [4]: 0.19 pM

G3T/E6K/K53A-monoFc (Fc fusion)
HEK-blue EC50 (pM) + 300 nM IL-18BP [3]: 2.81 pM
HEK-blue EC50 (pM) - IL-18BP [4]: 0.06 pM

G3T/M60K-monoFc (Fc fusion)
HEK-blue EC50 (pM) + 300 nM IL-18BP [3]: 1.78 pM
HEK-blue EC50 (pM) - IL-18BP [4]: 0.21 pM
